Target: T1, LKB1 (Mus musculus, UniProt Q9WTK7)
T1 construct: Constructs expressing the full length wild type and kinase dead mouse LKB1 have been described previously; made in house; host or cells: 293 cells, transiently transfected
T1 sequence (Q9WTK7 1-433 limits assumed): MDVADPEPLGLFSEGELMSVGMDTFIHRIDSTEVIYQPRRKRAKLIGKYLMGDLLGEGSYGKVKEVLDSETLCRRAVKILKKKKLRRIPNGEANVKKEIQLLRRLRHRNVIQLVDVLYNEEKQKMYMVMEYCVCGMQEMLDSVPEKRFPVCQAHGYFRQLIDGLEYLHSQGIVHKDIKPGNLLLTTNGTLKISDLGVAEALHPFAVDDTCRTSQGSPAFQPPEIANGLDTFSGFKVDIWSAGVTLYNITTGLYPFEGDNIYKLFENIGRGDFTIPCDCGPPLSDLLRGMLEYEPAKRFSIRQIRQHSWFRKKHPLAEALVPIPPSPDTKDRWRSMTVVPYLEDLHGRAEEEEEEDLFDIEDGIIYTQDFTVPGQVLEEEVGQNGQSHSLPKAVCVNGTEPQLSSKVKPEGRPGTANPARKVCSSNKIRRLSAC
T1 sequence (Q7RTN6 1-431 partner): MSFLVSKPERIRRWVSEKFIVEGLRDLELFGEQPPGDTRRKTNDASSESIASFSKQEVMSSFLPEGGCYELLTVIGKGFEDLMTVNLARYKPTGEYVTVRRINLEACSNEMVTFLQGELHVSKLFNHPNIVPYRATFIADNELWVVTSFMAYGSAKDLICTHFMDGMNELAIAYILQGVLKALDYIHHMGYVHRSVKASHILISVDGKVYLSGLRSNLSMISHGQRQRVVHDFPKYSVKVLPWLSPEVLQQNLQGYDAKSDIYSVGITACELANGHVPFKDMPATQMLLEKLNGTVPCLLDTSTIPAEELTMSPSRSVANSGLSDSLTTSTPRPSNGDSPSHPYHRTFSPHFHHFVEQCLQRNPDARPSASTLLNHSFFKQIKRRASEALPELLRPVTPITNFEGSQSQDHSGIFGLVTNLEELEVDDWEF
T1 sequence (Q9Y376 1-341 partner): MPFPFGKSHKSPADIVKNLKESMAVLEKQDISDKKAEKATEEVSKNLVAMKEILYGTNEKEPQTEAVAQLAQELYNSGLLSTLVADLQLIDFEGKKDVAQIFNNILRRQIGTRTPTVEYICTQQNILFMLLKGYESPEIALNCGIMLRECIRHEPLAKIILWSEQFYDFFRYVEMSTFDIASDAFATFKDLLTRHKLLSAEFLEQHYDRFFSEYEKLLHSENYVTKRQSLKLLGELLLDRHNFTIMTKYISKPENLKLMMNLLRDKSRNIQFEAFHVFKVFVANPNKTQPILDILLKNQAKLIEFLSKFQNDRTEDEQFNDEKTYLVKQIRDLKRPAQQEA
Assay: LKB1 autophosphorylation and phosphorylation of MBP after co-expression with STRAD and MO25 isoforms in 293 cells
Format: biochemical
Settings: GST-LKB1 co-expressed with STRAD and MO25 isoforms in 293 cells
Protocol: FIG. 9. Activation of LKB1 by association with STRAD and MO25 Isoforms. 293 cells were transfected with constructs encoding GST-LKB1 in the presence or absence of constructs encoding the indicated isoforms of STRAD and MO25. 36 h post-transfection, GST-LKB1 was affinity purified and assayed for autophosphorylation and transphosphorylation of MBP as described in the materials and methods. The reactions were electrophoresed and the gel autoradiographed (top panel). Phosphorylation of MBP by LKB1 at Thr65 was also monitored by immunoblotting with a phosphospecific antibody (T65-P), which recognises MBP phosphorylated by LKB1 at this residue. Each reaction was also immunoblotted with the appropriate epitope tag antibodies to monitor levels of LKB1, STRAD and MO25 isoforms. Similar results were obtained in 3 separate experiments.
LKB1 autophosphorylation and phosphorylation of MBP. […] After incubation for 40 min at 30° C., the reactions were terminated by the addition of 8 μl of sample Buffer. 30 μl was electrophoresed on SDS-polyacrylamide gels, which were then dried and analysed by autoradiography to quantify LKB1 autophosphorylation, MBP and STRADα phosphorylation. 5 μl of each reaction was diluted in 45 μl of 1× SDS Sample Buffer. […]

B1: STRADα: STE20-related pseudokinase (STe20-Related ADaptor protein-α) that binds and activates LKB1 (protein, UniProt Q7RTN6 1-431, looked up)
STE20-related kinase adapter …: T1 sequence (Q7RTN6 1-431 partner)
increase in LKB1 activity relative to LKB1 expressed alone: 4 fold
